Data taken from the supplement of paper PMC9170038.

System: MS2 coat protein
Assay: apparent KD of MS2 coat protein; designed switch direction (-1 OFF switch, 1 ON switch): -1; higher = weaker reporter binding
Method in brief: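 Apparent KD, taken as the median over clusters for each design, was obtained by curve-fitting normalised cluster fluorescence. Designed RNA switches had been transcribed on Illumina chips by stalled E. coli RNA polymerase and titrated with SNAP-549-labelled MS2 coat protein, doubling from 0.7 or 1.5 nM to 3 µM.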

[1] = Eterna round: R95, input ligand: FMN 200 uM
[2] = Eterna round: R95, input ligand: microRNA oligo, concentration not stated
[3] = Eterna round: R95, input ligand: none
[4] = input ligand: microRNA oligo, concentration not stated

Sequence: GAUCCUCGGGUUAGGAUAUCGAGGAUGUACGUCAGCGAGAAGGAACAUGAGGAUCACCCAUGUUGCUUAGCAAG [BmEX4 A.18] (Eterna round: R97, puzzle: Brourd's mod of Exclusion 4)
- apparent KD of MS2 coat protein (input ligand: FMN 200 uM): 21.1 nM
- apparent KD of MS2 coat protein (input ligand: none): 19.5 nM

Sequence: GAUCCUUCUGUUAGGAUAUGCUUUGGGCUUCCGCAGCAGAAGGAACAUGAGGAUCACCCAUGUCAAAUACCAUC [salish99_bmex4_r4_503] (Eterna round: R97, puzzle: Brourd's mod of Exclusion 4)
- apparent KD of MS2 coat protein (input ligand: FMN 200 uM): 23.1 nM
- apparent KD of MS2 coat protein (input ligand: none): 23.1 nM

Sequence: GAUGAGCAUGUCAGGAUAUCCACUCUAAUAAAACAGGAGAAGGGACAUGAGGAUCACCCAUGUUCUAGACAUGA [Latealedi] (puzzle: Brourd's mod of Exclusion 4)
- apparent KD of MS2 coat protein [1]: 14.5 nM
- apparent KD of MS2 coat protein [2]: 13.1 nM
- apparent KD of MS2 coat protein [3]: 14 nM

Sequence: GAUGAGGUAGGAUAUACGAGAAGAUAGGGUAGAUAGAGAACACAUGAGGAUCACCCAUGUAGAAGGACCAGUAG [Mat - Exclusion 2 - Mod of my Tesla design - D73] (puzzle: Exclusion 2)
- apparent KD of MS2 coat protein [2]: 25.9 nM

Sequence: GAUGGACAUGAGGAUCACCCAUGUAAGGAUAUUGAUUGUGGCUAUAAAUAGUUACGGUCAAGAAGGUACUCGUC [-21.6, -18.6 kcal, A 31%] (Eterna round: R97, puzzle: Exclusion 1)
- apparent KD of MS2 coat protein (input ligand: FMN 200 uM): 128 nM
- apparent KD of MS2 coat protein (input ligand: none): 161 nM

Sequence: GAUGGAGAGCAGGAUAUCUUGGGUAAGCAUCAUAGAGAAGGGCUCACAUGAGGAUCACCCAUGUGGUCCAAGAA [Usbiridi] (Eterna round: R96, puzzle: Exclusion 6)
- apparent KD of MS2 coat protein (input ligand: FMN 200 uM): 57 nM
- apparent KD of MS2 coat protein [4]: 15.1 nM
- apparent KD of MS2 coat protein (input ligand: none): 18.3 nM

Sequence: GAUGGAGAGCAGGAUAUCUUGGGUAAGCAUCAUAGAGAAGGGCUCACAUGAGGAUCACCCAUGUGGUCCAAGAA [Usbiridi] (puzzle: Exclusion 6)
- apparent KD of MS2 coat protein [2]: 14.1 nM

Sequence: GAUGUGAGACAGGAUAUCCACGGGAUAGUCUGAGGAGAAGGGUCUACAUGAGGAUCACCCAUGUGCGUCCCUCA [EX6 B.8] (Eterna round: R97, puzzle: Exclusion 6)
- apparent KD of MS2 coat protein (input ligand: FMN 200 uM): 22.4 nM
- apparent KD of MS2 coat protein (input ligand: none): 15.5 nM

Sequence: GAUUAACAUGAGGAUCACCCAUGUGAGGAUAUGGAAUGGCUCAUUGUCUGAUUUCCUUCUAGAAGGCACAUCUU [1986#4c] (Eterna round: R97, puzzle: Exclusion 1)
- apparent KD of MS2 coat protein (input ligand: FMN 200 uM): 72.2 nM
- apparent KD of MS2 coat protein (input ligand: none): 63.3 nM

Sequence: GAUUACACAAGCUUUAGGGACAUGAGGAUCACCCAUGUUCGUCUUAUUGAUCUAGGUACGCUGACGUACCUAGAUCU [JL-sv1-2.31 Brourd mod] (puzzle: Sensor v3, turn-off variant 1)
- apparent KD of MS2 coat protein [1]: 14.5 nM
- apparent KD of MS2 coat protein [2]: 84.9 nM
- apparent KD of MS2 coat protein [3]: 13.2 nM

Sequence: GAUUAGCAAGCGAGAUCCCACAUGAGGAUCACCCAUGUGCUCGUCUUAUAAAGUACUGUGACGAAAGUCACGGUACA [Mat - Sensor, turn-off var - Eli Mod - D11] (Eterna round: R97, puzzle: Sensor, turn-off variant 1)
- apparent KD of MS2 coat protein (input ligand: FMN 200 uM): 17.2 nM
- apparent KD of MS2 coat protein (input ligand: none): 14.8 nM

Sequence: GAUUAUGCGAGCUUUAGGGACAUGAGGAUCACCCAUGUUCGUCUUAUUAGUCUAAAUACACUGACAUACCUAAAUCU [JMF 54] (puzzle: Sensor v3, turn-off variant 1)
- apparent KD of MS2 coat protein [1]: 17.3 nM
- apparent KD of MS2 coat protein [2]: 15.9 nM
- apparent KD of MS2 coat protein [3]: 13.6 nM

Sequence: GAUUAUGCGAGCUUUAGGGACAUGAGGAUCACCCAUGUUCGUCUUAUUAGUCUAAGUGCACUGACAUACCUAAAUCU [JMF 83] (puzzle: Sensor v3, turn-off variant 1)
- apparent KD of MS2 coat protein [1]: 15.8 nM
- apparent KD of MS2 coat protein [2]: 23.2 nM
- apparent KD of MS2 coat protein [3]: 16.6 nM

Sequence: GAUUAUGCGAGCUUUAGGGACAUGAGGAUCACCCAUGUUCGUCUUAUUAGUCUGGGUACACUAACAUACCUAAAUCU [JMF 21] (puzzle: Sensor v3, turn-off variant 1)
- apparent KD of MS2 coat protein [1]: 26.9 nM
- apparent KD of MS2 coat protein [2]: 43.6 nM
- apparent KD of MS2 coat protein [3]: 30.4 nM

Sequence: GAUUAUGCGAGCUUUAGGGACAUGAGGAUCACCCAUGUUCGUCUUAUUAGUCUGGGUGCGCUAACAUACCUAAAUCU [JMF 53] (puzzle: Sensor v3, turn-off variant 1)
- apparent KD of MS2 coat protein [1]: 90.1 nM
- apparent KD of MS2 coat protein [2]: 148 nM
- apparent KD of MS2 coat protein [3]: 175 nM

Sequence: GAUUAUGCGAGCUUUAGGGACAUGAGGAUCACCCAUGUUCGUCUUAUUGAUCUAGAUGCACUGACAUACCUAAAUCU [JMF 77] (puzzle: Sensor v3, turn-off variant 1)
- apparent KD of MS2 coat protein [1]: 15.1 nM
- apparent KD of MS2 coat protein [2]: 18.7 nM
- apparent KD of MS2 coat protein [3]: 17.2 nM

Sequence: GAUUAUGCGAGCUUUAGGGACAUGAGGAUCACCCAUGUUCGUCUUAUUGAUCUAGGUACACUAACAUACCUAAAUCU [JMF 17] (puzzle: Sensor v3, turn-off variant 1)
- apparent KD of MS2 coat protein [1]: 19.8 nM
- apparent KD of MS2 coat protein [2]: 38.1 nM
- apparent KD of MS2 coat protein [3]: 23.1 nM

Sequence: GAUUAUGCGAGCUUUAGGGACAUGAGGAUCACCCAUGUUCGUCUUAUUGGUCUAGGUACACUGACAUACCUAAAUCU [JMF 68] (puzzle: Sensor v3, turn-off variant 1)
- apparent KD of MS2 coat protein [1]: 22.7 nM
- apparent KD of MS2 coat protein [2]: 37.2 nM
- apparent KD of MS2 coat protein [3]: 23 nM

Sequence: GAUUAUGCGAGCUUUAGGGACAUGAGGAUCACCCAUGUUCGUCUUAUUGGUCUGAGUGCACUAACAUACCUAAAUCU [JMF 31] (puzzle: Sensor v3, turn-off variant 1)
- apparent KD of MS2 coat protein [1]: 23.1 nM
- apparent KD of MS2 coat protein [2]: 37.3 nM
- apparent KD of MS2 coat protein [3]: 22.8 nM

Sequence: GAUUAUGCGAGCUUUAGGGACAUGAGGAUCACCCAUGUUCGUCUUAUUGGUCUGGGUACACUAACAUACCUAAAUCU [JMF 22] (puzzle: Sensor v3, turn-off variant 1)
- apparent KD of MS2 coat protein [1]: 33.4 nM
- apparent KD of MS2 coat protein [2]: 47.9 nM
- apparent KD of MS2 coat protein [3]: 36.2 nM

Sequence: GAUUAUGCGAGCUUUAGGGACAUGAGGAUCACCCAUGUUCGUCUUGUUGAUCUAGGUACGCUAACAUACCUAAAUCU [JMF 6] (puzzle: Sensor v3, turn-off variant 1)
- apparent KD of MS2 coat protein [1]: 19.7 nM
- apparent KD of MS2 coat protein [2]: 28.3 nM
- apparent KD of MS2 coat protein [3]: 20.2 nM

Sequence: GAUUAUGCGAGCUUUAGGGACAUGAGGAUCACCCAUGUUCGUCUUGUUGAUCUAGGUGCGCUAACAUACCUAAAUCU [JMF 48] (puzzle: Sensor v3, turn-off variant 1)
- apparent KD of MS2 coat protein [1]: 23.5 nM
- apparent KD of MS2 coat protein [2]: 30.5 nM
- apparent KD of MS2 coat protein [3]: 23.4 nM

Sequence: GAUUCGGGAGGAUAUACAUGAGGAUCACCCAUGUAUAUAUAAUAUAAUAAAUUAAAAUGUAGAAGGUUUGGGUC [-13.5, -9.6 kcal, 38% A] (Eterna round: R97, puzzle: Exclusion 3)
- apparent KD of MS2 coat protein (input ligand: FMN 200 uM): 22.8 nM
- apparent KD of MS2 coat protein (input ligand: none): 23.2 nM

Sequence: GAUUCGGGAGGAUAUACAUGAGGAUCACCCAUGUGUAUAUAAUAUGUUAAGUUAUCAUGUAGAAGGUUUGGGUC [-16.5, -16.2 kcal, 30% A] (Eterna round: R97, puzzle: Exclusion 3)
- apparent KD of MS2 coat protein (input ligand: FMN 200 uM): 38 nM
- apparent KD of MS2 coat protein (input ligand: none): 49 nM

Sequence: GCAAGCUUAAUCAGUAUGAACAUGAGGAUCACCCAUGUAUAAGGUAAUACUUUUGGGCCCUUUAUUACUCGUCUUAU [JR_STOV1_Sub029] (Eterna round: R97, puzzle: Sensor, turn-off variant 1)
- apparent KD of MS2 coat protein (input ligand: FMN 200 uM): 67.4 nM
- apparent KD of MS2 coat protein (input ligand: none): 72.6 nM

Sequence: GCAAGCUUGUCAAGAUCCCACAUGAGGAUCACCCAUGUGCAUCGUCUGAGCCCAUAGCUAGUCAUCUGCGGGUGCGU [Eternabot (Original) Solution 15] (Eterna round: R97, puzzle: Sensor, turn-off variant 1)
- apparent KD of MS2 coat protein (input ligand: FMN 200 uM): 40.3 nM
- apparent KD of MS2 coat protein (input ligand: none): 44.7 nM

Sequence: GCAAGCUUUUGCUCGUCUUACAUGAGGAUCACCCAUGUCGGGUGCUUGCUUGCGUCCGGCGUCUGGGCCGUGGCGGU [-31.9, -55.1 kcal, A 10%] (Eterna round: R97, puzzle: Sensor, turn-off variant 1)
- apparent KD of MS2 coat protein (input ligand: FMN 200 uM): 22.2 nM
- apparent KD of MS2 coat protein (input ligand: none): 21.6 nM

Sequence: GCAAGGGAAGGAUAUACAUUACGACCGUCAUAGUACCUGCGACAUGAGGAUCACCCAUGUAGAAGGUCCAGCGG [EX2 C.13] (Eterna round: R97, puzzle: Exclusion 2)
- apparent KD of MS2 coat protein (input ligand: FMN 200 uM): 17.4 nM
- apparent KD of MS2 coat protein (input ligand: none): 13.3 nM

Sequence: GCACAGGCAGGAUAUACAUGAGGAUCACCCAUGUGAUCCCUUAAGUACAAAAGUACAAGUAGAAGGGCCUGUGC [Omei Ex3 Model Bachelor's Dilema v43] (Eterna round: R97, puzzle: Exclusion 3)
- apparent KD of MS2 coat protein (input ligand: FMN 200 uM): 21.2 nM
- apparent KD of MS2 coat protein (input ligand: none): 916 nM

Sequence: GCACCAUGGCUUACUAGCCGUUAAACAUGAGGAUCACCCAUGUAGGAUAUGGUCUGGAUUACAGGCCAGAAGGGCGUAAGGUGC [JL Eli 026 mod] (Eterna round: R96, puzzle: Exclusion NG 3)
- apparent KD of MS2 coat protein (input ligand: FMN 200 uM): 15.9 nM
- apparent KD of MS2 coat protein [4]: 13.1 nM
- apparent KD of MS2 coat protein (input ligand: none): 19.8 nM

Sequence: GCACGGAAUGUAGGAUAUUAGUGCGAUUAGCACUGAGAAGGACAUGAGGAUCACCCAUGUAACUCAAUAAUAAACCUUCCGUGC [Eli exng1 - 045] (Eterna round: R96, puzzle: Exclusion NG 1)
- apparent KD of MS2 coat protein (input ligand: FMN 200 uM): 11.2 nM
- apparent KD of MS2 coat protein [4]: 8.85 nM
- apparent KD of MS2 coat protein (input ligand: none): 12.2 nM

Sequence: GCACGGAGUGUAGGAUAUCUGUGCGAUUAGCUCAGAGAAGGACACAUGAGGAUCACCCAUGUGUAACAACACAAUAAUCCGUGC [Eli exng1 - 072] (Eterna round: R96, puzzle: Exclusion NG 1)
- apparent KD of MS2 coat protein (input ligand: FMN 200 uM): 12.3 nM
- apparent KD of MS2 coat protein [4]: 11.2 nM
- apparent KD of MS2 coat protein (input ligand: none): 14.2 nM

Sequence: GCACGGAGUGUAGGAUAUCUGUGCGAUUAGCUCAGAGAAGGACACAUGAGGAUCACCCAUGUUACCUCAAUUAGCCUUCCGUGC [Eli exng1 - 032] (Eterna round: R96, puzzle: Exclusion NG 1)
- apparent KD of MS2 coat protein (input ligand: FMN 200 uM): 30.4 nM
- apparent KD of MS2 coat protein [4]: 17 nM
- apparent KD of MS2 coat protein (input ligand: none): 19 nM
